Test results as given in publication PMC11838195.

Molecular target: T1, MBP-METTL7A WT (human, UniProt Q9H8H3 1-244)
T1 sequence: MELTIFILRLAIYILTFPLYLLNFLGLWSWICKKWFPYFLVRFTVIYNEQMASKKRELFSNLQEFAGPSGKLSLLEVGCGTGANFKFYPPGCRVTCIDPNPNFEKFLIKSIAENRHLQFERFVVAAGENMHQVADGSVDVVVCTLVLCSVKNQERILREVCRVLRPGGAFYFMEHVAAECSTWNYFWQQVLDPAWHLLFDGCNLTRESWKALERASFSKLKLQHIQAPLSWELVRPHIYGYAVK
Test: EMSA

B1: 60 bp dsDNA (dsDNA)
DNA 1: ATTCTTCCGAGTTTTTTCCTCATCTCACTTCCAATACAGAAAGCTTGCCCCGCCCTTCCT
DNA 2: AGGAAGGGCGGGGCAAGCTTTCTGTATTGGAAGTGAGATGAGGAAAAAACTCGGAAGAAT
binding result: binds
